Source: patent US20200347130A1 (JIANGSU HENGRUI MEDICINE, published 2020)

Experiments:
[1] = target: T1, Full-length human CD96 on CHO-S cells (human, UniProt P40200 22-585); test: cell ELISA on fixed CHO-S cells overexpressing human CD96, HRP anti-human secondary antibody, OD450
T1 construct: also called CD96-CHOs; hCD96-CHOs
T1 sequence: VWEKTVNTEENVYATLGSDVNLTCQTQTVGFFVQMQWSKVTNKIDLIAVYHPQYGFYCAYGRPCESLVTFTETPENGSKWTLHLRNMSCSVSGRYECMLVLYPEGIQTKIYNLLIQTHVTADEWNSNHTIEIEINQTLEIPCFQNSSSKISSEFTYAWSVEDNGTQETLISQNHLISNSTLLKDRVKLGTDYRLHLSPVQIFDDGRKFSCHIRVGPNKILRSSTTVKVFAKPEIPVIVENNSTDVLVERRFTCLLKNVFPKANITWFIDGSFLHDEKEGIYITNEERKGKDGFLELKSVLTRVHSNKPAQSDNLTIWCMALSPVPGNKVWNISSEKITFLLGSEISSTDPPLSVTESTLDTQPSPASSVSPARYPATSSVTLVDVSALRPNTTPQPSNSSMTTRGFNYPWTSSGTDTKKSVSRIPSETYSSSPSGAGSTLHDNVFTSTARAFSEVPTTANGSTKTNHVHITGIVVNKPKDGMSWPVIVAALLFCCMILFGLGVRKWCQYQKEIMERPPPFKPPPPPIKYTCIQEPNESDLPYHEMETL
Method: The binding capacity of the anti-CD96 antibody was tested by binding experiments of the antibody to human CD96 protein overexpressing CHO-S cells. The full-length CD96 plasmid was transfected into CHO-S cells by electrotransfection, and cells were then screened for two weeks under pressure for the detection of the expression of CD96. After the over-expressing cells were fixed at the bottom of the 96-well plate, the density of the signal after adding the antibody was used to judge the binding activity of the antibody to CD96 overexpressing CHO-S cells. The specific experimental method is as follows:
The cells were seeded at a density of 9×10⁴/100 μL/well in a 96-well plate and cultured overnight. After aspirating the supernatant, the plate was washed once with PBS, subsequently, 100 μl/well immunostaining fixation solution (Biyuntian, P0098) was added and fixed for one hour at room temperature, and the plate was washed three times with PBS. Once the liquid was discarded, 250 μl/well of 5% skim milk (BD, 232100) blocking solution diluted with PBS was added, and the plate was blocked in an incubator at 37° C. for 2.5 hours. […] The absorption value was read at 450 nm with a NOVOStar microplate reader, and the EC50 value of the CD96 antibodies to CD96 overexpressing CHO-S cells was calculated (see FIG. 1 and Table 15).

[2] = target: T2, Biotinylated CD96 antigen (human, UniProt P40200-2 22-503, limits assumed, biotinylated); test: competition ELISA: antibody B pre-incubated with biotinylated CD96 antigen, added to a plate coated with antibody A, HRP-streptavidin, OD450; competitor: coated h1718-012
T2 sequence (looked up): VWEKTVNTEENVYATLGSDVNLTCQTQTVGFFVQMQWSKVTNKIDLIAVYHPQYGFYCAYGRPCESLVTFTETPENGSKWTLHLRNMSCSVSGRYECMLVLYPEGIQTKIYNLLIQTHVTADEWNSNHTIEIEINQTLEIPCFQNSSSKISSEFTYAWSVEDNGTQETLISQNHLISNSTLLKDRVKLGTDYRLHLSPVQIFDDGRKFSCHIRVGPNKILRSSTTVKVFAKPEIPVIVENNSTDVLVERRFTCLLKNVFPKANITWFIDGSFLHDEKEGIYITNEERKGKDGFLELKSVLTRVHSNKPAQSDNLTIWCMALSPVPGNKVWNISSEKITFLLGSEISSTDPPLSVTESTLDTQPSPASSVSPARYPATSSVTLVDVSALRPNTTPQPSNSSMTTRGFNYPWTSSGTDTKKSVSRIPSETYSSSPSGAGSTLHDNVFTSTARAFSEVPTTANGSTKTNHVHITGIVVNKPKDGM
Method: Competitive assays of different antibodies binding to CD96 protein were used to classify binding epitopes of the antibodies. The specific experimental methods are as follows:
Antibody A was diluted to a concentration of 2 μg/ml with PBS buffer (Shanghai Yuanpei Biotechnology Co., Ltd. Cat No. B320), pH 7.4, added to a 96-well microtiter plate (Corning, Cat No. CLS3590-100EA) at a volume of 50 μl/well, and coated at 4° C. overnight. After discarding the liquid, 250 μl/well of 5% skim milk (BD skim milk, Cat No. 232100) blocking solution diluted with PBS was added, and the plate was incubated at 37° C. for 3 hours. After blocking, the blocking solution was discarded, and the plate was washed 5 times with PBST buffer (pH 7.4 PBS containing 0.05% tween-20) and stored for later use. Antibody B was diluted to 40 μg/ml and 8 μg/ml with 1% BSA, and Biotinylated CD96 antigen was simultaneously diluted to 4 μg/mL. Subsequently, antibody B and antigen were mixed in a 1:1 volume ratio, pre-incubated at 37° C. for 45 minutes, added into the enzyme plate coated with antibody A, thus incubating the plate in an incubator at 37° C. for 1.5 hours. […] The absorption value was read at 450 nm with a NOVOStar microplate reader, and the OD value was used to determine whether A and B CD96 antibodies compete with each other. […]

B1: h1719-010 (antibody, V domains shown)
VH: EVTLKESGPVLVKPTETLTLTCTVSGFSLSSYGVSWVRQPPGKGLEWLGVIWGDGNTNYHSVLISRLTISKDTSKSQVVLTLTNMDPVDTATYYCAKQNYYGSRYGYPIDYWGQGTTVTVSS
VL: DIQMTQSPSSVSASVGDRVTITCKATQDVGTAVAWYQQKPGKAPKLLIYWASTRHTGVPSRFSGSGSGTDFTLTISSLQPEDFATYYCQQYGSSVLTFGGGTKVEIK
notes: Only variable regions are tied to this name
[1]
  EC50 (read off the curve): ~0.05 nM
[2]
  IC50 (read off the curve): ~0.6 nM
